# Data taken from publication PMC9793359.
# Columns and labels:
# [1] = target: Flag-tagged nsp7 of SARS-CoV-2 (SARS-CoV-2) (UniProt P0DTD1); test: co-IP
# [2] = target: Flag-tagged nsp8 of SARS-CoV-2 (SARS-CoV-2) (UniProt P0DTD1); test: co-IP
Substance,decrease in co-precipitated complex against wild type [1] [%],decrease in co-precipitated complex against wild type [2] [%],increase in co-precipitated complex against wild type [1] [fold],increase in co-precipitated complex against wild type [2] [fold]
HA-tagged nsp12 T20A mutant (natural protein),33,33,–,–
HA-tagged nsp12 T20E mutant (natural protein),–,–,2,2
